Experimental data reported in patent US20200247894A1.
Like-named read-outs stand apart in the source and are kept apart here. Blank lines part the entries; values can stand above or below the substance they belong to.

Experiments:
[1] = target: mouse IL-2Rγ endogenously expressed on MC/9 cells (mouse) (UniProt P34902); test: flow cytometry, 10 ug/ml isotype control, MC/9 cells (endogenous mouse IL-2Rg)
[2] = target: human IL-2Rγ endogenously expressed on NK-92 and Jurkat cells (human) (UniProt P31785); test: flow cytometry, 10 ug/ml isotype control, NK-92 cells (endogenous human IL-2Rg)
human IL-2Rγ endogenously expressed on NK-92 and Jurkat cells (human), sequence (P31785 23-369): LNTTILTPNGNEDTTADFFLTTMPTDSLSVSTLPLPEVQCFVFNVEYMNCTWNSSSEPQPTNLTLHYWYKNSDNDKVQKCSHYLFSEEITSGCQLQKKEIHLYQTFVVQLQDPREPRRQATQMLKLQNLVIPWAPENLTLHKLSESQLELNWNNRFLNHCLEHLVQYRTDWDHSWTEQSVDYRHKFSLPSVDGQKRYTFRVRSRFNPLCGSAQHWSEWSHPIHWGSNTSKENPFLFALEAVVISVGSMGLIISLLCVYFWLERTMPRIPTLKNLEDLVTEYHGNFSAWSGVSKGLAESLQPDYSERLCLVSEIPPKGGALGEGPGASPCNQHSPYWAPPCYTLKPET

[3] = target: human IL-2Rγ endogenously expressed on NK-92 and Jurkat cells (human) (UniProt P31785); test: as above; remark: listed apart in the source
[4] = target: human IL-2Rγ endogenously expressed on NK-92 and Jurkat cells (human) (UniProt P31785); test: flow cytometry, 10 ug/ml isotype control, Jurkat cells (endogenous human IL-2Rg)
[5] = target: human IL-2Rγ expressed on cells (human) (UniProt P31785); test: flow cytometry, isotype control at 10 µg/ml, MFI over unstained; upper end (NK-92 by Table 9-1)
human IL-2Rγ expressed on cells (human), sequence (P31785 23-369): as above

[6] = target: human IL-2Rγ expressed on cells (human) (UniProt P31785); test: flow cytometry, isotype control at 10 µg/ml, MFI over unstained; lower end (Jurkat by Table 9-1)
[7] = target: human IL-2Rγ expressed on cells (human) (UniProt P31785); test: flow cytometry on NK-92 cells, isotype control at 10 µg/ml, MFI over unstained; the end 2 belongs to HEK293 (negative control cells) by Table 9-2
[8] = target: human IL2Rγ (endogenously expressed on cells) (human) (UniProt P31785); test: cell-based or functional assay
human IL2Rγ (endogenously expressed on cells) (human), sequence (P31785 23-369): as above

[9] = target: human IL2Rγ (endogenously expressed on cells) (human) (UniProt P31785); test: cell-based or functional assay; remark: listed apart in the source
[10] = target: mouse IL-2Rγ endogenously expressed on MC/9 cells (mouse) (UniProt P34902); test: flow cytometry, secondary antibody alone (no primary), MC/9 cells (endogenous mouse IL-2Rg)
[11] = target: human IL-2Rγ endogenously expressed on NK-92 and Jurkat cells (human) (UniProt P31785); test: flow cytometry, secondary antibody alone (no primary), NK-92 cells (endogenous human IL-2Rg)
[12] = target: human IL-2Rγ endogenously expressed on NK-92 and Jurkat cells (human) (UniProt P31785); test: as above; remark: listed apart in the source
[13] = target: human IL-2Rγ endogenously expressed on NK-92 and Jurkat cells (human) (UniProt P31785); test: flow cytometry, secondary antibody alone (no primary), Jurkat cells (endogenous human IL-2Rg)

mouse IL-2Rγ endogenously expressed on MC/9 cells (mouse), sequence (P34902 23-369): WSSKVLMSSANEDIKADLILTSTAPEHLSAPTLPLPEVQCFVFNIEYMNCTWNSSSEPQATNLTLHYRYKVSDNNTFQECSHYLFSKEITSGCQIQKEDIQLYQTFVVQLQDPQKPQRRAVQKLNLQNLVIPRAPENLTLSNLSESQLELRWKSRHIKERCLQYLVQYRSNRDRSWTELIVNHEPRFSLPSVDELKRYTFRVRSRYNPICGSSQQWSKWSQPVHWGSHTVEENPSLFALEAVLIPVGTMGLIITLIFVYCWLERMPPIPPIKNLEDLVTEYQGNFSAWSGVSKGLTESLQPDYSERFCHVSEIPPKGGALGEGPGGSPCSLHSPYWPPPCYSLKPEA

Substance: human IL-2 (from UniProt P60568 21-153) (ligand)
EC50; IL-2 dose response; NK92/hIL7R/STAT3-luc [8]: 0.033 nM | EC50; IL-2 dose response; NK92/hIL7R/STAT3-luc [9]: 0.045 nM

Substance: human IL-15 (from UniProt P40933 49-162) (ligand)
EC50; IL-15 dose response; NK92/hIL7R/STAT3-luc [8]: 0.15 nM | EC50; IL-15 dose response; NK92/hIL7R/STAT3-luc [9]: 0.23 nM

Substance: anti-human antibody conjugated to allophycocyanin (APC) (Jackson ImmunoResearch, #109-136-170)
Binding Ratio (Sample over unstained MFIs) [10]: 1 | Raw MFI [10]: 173 MFI | Binding Ratio (Sample over unstained MFIs) [11]: 1 | Raw MFI [11]: 210 MFI | Raw MFI [12]: 234 MFI | Binding Ratio (Sample over unstained MFIs) [13]: 1 | Raw MFI [13]: 80 MFI

Now from value to substance:

Binding Ratio (Sample over unstained MFIs) [1]: 1 | Raw MFI [1]: 196 MFI | Binding Ratio (Sample over unstained MFIs) [2]: 13 | Raw MFI [2]: 1890 MFI | Binding Ratio (Sample over unstained MFIs) [3]: 1 | Raw MFI [3]: 223 MFI | Binding Ratio (Sample over unstained MFIs) [4]: 1 | Raw MFI [4]: 92 MFI | binding ratio [5]: 13 | binding ratio [6]: 1 | binding ratio [7]: 1
Substance: REGN1945 (antibody)

EC50; IL-21 dose response; NK92/hIL7R/STAT3-luc [8]: 0.0031 nM | EC50; IL-21 dose response; NK92/hIL7R/STAT3-luc [9]: 0.006 nM
Substance: human IL-21 (from UniProt Q9HBE4 32-162) (ligand)

EC50; IL-9 dose response; NK92/hIL7R/STAT3-luc [8]: 0.02 nM | EC50; IL-9 dose response; NK92/hIL7R/STAT3-luc [9]: 0.033 nM
Substance: human IL-9 (from UniProt P15248 19-144) (ligand)
